One experiment has as its target T1, MBP-CNOT1 SHD (human, UniProt A5YKK6 1833-2361).
T1 construct: also called isolated CNOT1 SHD; NOT1 superfamily homology domain; source: E. coli BL21 (DE3) Star, purified (amylose resin, HiTrapQ, Superdex 200); not shown: MBP, N-terminal, kept
The experiment can be described thus: pull-down; GST pull-down in vitro with recombinant proteins expressed in E. coli; GST-NIM as bait. The conditions noted are these: both partners purified.

The target of experiment [1] is T2, CNOT1 SHD (residues 1833–2361), MBP tag removed (human, UniProt A5YKK6 1833-2361).
T2 construct: source: E. coli BL21 (DE3) Star, purified (amylose resin, HiTrapQ, HRV3C digestion, size exclusion chromatography); not shown: MBP, N-terminal, cleaved
T2 sequence (A5YKK6 1833-2361): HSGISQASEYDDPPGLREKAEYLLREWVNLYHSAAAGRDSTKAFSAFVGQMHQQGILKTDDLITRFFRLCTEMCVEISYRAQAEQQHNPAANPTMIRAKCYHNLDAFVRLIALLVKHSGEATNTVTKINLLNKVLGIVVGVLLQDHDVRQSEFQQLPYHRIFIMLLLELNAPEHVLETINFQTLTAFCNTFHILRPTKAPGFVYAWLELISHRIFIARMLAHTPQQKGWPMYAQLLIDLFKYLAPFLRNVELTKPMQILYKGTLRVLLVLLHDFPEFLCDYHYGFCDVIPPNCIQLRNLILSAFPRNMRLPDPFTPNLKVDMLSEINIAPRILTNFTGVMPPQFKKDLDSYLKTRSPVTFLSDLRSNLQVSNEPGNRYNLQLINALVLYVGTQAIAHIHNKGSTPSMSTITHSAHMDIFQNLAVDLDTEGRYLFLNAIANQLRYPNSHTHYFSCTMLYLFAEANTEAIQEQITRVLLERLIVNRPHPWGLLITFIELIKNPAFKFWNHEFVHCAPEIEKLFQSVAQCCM
Nature of the experiment: crystal structure; CNOT1 SHD with synthetic Nanos1 NIM peptide; vapor diffusion at 22°C, 0.7-0.8 M succinic acid pH 7.0; refined at 2.8 Å. The conditions noted are these: both partners purified.

Results on four molecules are retold here after article PMC4003280, “Structural basis for the Nanos-mediated recruitment of the CCR4–NOT complex and translational repression” (Genes & Development, 2014).

T1 sequence (A5YKK6 1833-2361): as above

B1: GST-Nanos2 NIM (domain or fragment, human, UniProt P60321 6-22, looked up)
chain: FDMWKDYFNLSQVVWAL
notes: Nanos2, human, NIM, residues 6-22; also called conserved motif of Nanos2 fused to glutathione S-transferase; GST-tagged Nanos2 NIM; source: E. coli BL21 (DE3) Star, purified (described in the Supplemental Material)
With B1, the binding result in the experiment with MBP-CNOT1 SHD is “binds”.

B2: GST-Nanos1 NIM (domain or fragment, human, UniProt Q8WY41 40-56, looked up)
chain: FSSWNDYLGLATLITKA
notes: Nanos1, human, NIM, residues 40-56; also called conserved motif of Nanos1 fused to glutathione S-transferase; GST-tagged Nanos1 NIM; source: E. coli BL21 (DE3) Star, purified (described in the Supplemental Material)
Consider B2, for which, in the experiment with MBP-CNOT1 SHD, the binding result is given as “binds”.

B3: Nanos1 NIM peptide (residues 40–56) (peptide, UniProt Q8WY41 40-56, looked up)
peptide: FSSWNDYLGLATLITKA
notes: Nanos1, H. sapiens, NIM, residues 40–56; also called NIM peptide of Nanos1; Nanos1 peptide; source: synthetic peptide (EMC Microcollections)
As for B3, the binding result in experiment [1] is “binds”.

B4: GST-Nanos3 NIM (domain or fragment, human, UniProt P60323 4-20, looked up)
chain: FDLWTDYLGLAHLVRAL
notes: Nanos3, human, NIM, residues 4-20; also called conserved motif of Nanos3 fused to glutathione S-transferase; GST-tagged Nanos3 NIM; source: E. coli BL21 (DE3) Star, purified (described in the Supplemental Material)
For B4, in the experiment with MBP-CNOT1 SHD, the binding result is listed as “binds”.
